Measured values published in patent US20230212549A1, “COMPOUNDS COMPRISING A […] LIGAND AND USE THEREOF” (priority 2021, published 2023).
Bridge positions count the residues as written; N and C are the ends.

T1: 5-HT1A (h) (human), P08908
T1 chain: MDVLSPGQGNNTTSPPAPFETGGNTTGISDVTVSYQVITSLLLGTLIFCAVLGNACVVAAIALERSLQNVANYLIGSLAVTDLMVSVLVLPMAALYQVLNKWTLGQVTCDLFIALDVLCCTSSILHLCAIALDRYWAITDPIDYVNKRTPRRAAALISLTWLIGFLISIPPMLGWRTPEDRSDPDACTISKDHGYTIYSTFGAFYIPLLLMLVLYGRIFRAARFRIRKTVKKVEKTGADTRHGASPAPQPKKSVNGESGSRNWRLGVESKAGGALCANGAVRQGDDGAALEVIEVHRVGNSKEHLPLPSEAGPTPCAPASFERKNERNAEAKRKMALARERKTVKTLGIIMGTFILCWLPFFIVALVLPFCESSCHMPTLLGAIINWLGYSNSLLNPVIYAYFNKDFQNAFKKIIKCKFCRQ

T2: AR (h) (human), P10275
T2 chain: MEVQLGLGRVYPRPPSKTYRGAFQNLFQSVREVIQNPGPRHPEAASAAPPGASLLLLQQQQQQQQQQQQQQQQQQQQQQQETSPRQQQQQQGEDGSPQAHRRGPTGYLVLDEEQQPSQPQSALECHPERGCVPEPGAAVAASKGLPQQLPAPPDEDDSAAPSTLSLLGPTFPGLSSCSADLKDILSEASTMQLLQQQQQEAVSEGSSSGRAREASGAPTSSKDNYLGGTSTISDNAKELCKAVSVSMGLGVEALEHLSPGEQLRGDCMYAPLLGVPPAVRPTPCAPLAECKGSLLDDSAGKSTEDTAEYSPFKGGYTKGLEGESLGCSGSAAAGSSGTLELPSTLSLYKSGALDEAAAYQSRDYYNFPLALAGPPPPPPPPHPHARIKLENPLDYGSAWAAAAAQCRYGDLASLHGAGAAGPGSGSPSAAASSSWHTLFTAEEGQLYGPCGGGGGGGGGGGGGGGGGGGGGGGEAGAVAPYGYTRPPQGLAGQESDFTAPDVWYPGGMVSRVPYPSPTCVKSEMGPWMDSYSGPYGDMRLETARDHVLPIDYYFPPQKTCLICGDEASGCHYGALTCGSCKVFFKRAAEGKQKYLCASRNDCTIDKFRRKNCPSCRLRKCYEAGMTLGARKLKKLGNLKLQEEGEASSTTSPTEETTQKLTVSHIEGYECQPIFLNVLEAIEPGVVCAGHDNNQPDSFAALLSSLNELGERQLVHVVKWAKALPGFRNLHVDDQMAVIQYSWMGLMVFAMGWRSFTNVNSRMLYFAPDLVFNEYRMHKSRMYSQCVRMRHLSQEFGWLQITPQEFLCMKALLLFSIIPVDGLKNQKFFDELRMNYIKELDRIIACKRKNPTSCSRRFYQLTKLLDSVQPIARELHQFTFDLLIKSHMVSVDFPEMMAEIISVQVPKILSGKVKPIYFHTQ

T3: CCK1 (CCKA) (h) (human), P32238
T3 chain: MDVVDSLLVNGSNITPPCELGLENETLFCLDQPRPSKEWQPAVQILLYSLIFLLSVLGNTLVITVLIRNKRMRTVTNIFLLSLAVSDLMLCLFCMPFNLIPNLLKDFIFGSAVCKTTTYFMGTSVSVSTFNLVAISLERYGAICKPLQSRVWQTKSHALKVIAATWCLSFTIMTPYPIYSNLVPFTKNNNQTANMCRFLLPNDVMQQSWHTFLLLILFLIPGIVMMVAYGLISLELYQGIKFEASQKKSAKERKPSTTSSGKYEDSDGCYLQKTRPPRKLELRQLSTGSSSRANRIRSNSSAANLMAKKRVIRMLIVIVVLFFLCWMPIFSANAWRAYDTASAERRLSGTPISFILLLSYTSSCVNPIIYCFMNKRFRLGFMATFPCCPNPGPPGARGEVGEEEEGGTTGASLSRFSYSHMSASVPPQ

T4: ETA (h) (human), P25101
T4 chain: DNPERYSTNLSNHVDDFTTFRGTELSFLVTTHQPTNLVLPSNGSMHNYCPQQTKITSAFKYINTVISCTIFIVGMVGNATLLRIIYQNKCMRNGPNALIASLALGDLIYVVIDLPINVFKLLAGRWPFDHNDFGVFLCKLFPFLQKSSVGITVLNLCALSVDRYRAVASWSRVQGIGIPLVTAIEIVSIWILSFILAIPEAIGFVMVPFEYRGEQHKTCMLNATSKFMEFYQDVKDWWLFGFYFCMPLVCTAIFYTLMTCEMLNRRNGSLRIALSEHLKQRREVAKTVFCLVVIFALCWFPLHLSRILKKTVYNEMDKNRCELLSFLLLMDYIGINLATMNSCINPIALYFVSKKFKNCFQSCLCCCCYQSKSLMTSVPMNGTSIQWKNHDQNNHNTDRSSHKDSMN


Legend:
Assay in all cases: radioligand displacement (agonist radioligand), 10 µM
[1] = target: T1, 5-HT1A (h) (human), P08908; details: remark: other sources report otherwise
[2] = target: 5-HT2A (h) (human), P28223; details: remark: other sources report otherwise
Sequence of 5-HT2A (h) (human), P28223 (P28223 whole entry): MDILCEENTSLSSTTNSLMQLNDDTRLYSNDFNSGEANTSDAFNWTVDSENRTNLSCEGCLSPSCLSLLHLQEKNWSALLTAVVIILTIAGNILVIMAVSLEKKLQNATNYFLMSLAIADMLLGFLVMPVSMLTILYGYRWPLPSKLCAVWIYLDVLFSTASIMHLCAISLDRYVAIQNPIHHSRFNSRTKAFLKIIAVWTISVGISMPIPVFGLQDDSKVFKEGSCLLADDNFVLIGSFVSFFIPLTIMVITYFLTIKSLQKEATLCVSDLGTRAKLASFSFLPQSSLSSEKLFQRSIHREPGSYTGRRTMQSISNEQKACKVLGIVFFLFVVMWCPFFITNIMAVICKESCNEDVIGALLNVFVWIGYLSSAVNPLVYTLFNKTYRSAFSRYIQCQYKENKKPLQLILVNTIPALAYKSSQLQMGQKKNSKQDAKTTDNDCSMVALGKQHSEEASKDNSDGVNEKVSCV

AR (h) (human), P10275 = target: T2, AR (h) (human), P10275; details: remark: other sources report otherwise
BZD (central) = target: BZD (central)
[3] = target: T3, CCK1 (CCKA) (h) (human), P32238; details: remark: other sources report otherwise
ETA (h) (human), P25101 = target: T4, ETA (h) (human), P25101; details: remark: other sources report otherwise
[4] = substrate: N neuronal alpha 4beta 2 (h) (human), P43681; details: remark: other sources report otherwise
Sequence of N neuronal alpha 4beta 2 (h) (human), P43681 (P43681 27-627, chain 1 of 2): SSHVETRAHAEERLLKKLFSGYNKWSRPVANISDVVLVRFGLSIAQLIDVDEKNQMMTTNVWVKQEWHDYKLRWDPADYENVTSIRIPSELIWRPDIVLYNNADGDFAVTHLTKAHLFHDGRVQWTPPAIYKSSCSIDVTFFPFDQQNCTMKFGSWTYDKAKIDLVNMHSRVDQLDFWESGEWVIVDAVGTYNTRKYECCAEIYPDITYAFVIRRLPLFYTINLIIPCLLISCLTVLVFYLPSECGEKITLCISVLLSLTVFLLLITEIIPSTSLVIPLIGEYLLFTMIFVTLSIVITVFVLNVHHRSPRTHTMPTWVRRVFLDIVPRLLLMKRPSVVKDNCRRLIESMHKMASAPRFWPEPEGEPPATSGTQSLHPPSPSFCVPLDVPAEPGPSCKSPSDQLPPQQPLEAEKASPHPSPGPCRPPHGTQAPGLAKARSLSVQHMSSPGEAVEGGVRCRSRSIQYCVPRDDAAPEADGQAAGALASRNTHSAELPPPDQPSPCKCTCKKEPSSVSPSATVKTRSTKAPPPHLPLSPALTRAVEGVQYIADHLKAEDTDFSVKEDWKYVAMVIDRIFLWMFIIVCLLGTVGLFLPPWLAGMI
Sequence of N neuronal alpha 4beta 2 (h) (human), P43681 (P17787 26-502, chain 2 of 2, further chain): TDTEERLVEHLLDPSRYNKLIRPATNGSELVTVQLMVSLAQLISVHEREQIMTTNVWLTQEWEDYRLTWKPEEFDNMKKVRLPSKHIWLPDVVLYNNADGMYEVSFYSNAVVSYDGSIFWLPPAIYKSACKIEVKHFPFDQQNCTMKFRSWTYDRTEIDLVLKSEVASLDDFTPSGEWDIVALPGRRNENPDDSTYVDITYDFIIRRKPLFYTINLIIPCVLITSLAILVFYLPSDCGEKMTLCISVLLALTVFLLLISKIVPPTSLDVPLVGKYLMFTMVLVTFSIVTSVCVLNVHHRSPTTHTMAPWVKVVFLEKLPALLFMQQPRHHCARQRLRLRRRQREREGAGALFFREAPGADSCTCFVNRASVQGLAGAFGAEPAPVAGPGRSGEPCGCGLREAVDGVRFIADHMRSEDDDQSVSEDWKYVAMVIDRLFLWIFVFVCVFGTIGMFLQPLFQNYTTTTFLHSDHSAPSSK

V1a (h) (human), P37288 = details: remark: other sources report otherwise
Sequence of V1a (h) (human), P37288 (P37288 whole entry): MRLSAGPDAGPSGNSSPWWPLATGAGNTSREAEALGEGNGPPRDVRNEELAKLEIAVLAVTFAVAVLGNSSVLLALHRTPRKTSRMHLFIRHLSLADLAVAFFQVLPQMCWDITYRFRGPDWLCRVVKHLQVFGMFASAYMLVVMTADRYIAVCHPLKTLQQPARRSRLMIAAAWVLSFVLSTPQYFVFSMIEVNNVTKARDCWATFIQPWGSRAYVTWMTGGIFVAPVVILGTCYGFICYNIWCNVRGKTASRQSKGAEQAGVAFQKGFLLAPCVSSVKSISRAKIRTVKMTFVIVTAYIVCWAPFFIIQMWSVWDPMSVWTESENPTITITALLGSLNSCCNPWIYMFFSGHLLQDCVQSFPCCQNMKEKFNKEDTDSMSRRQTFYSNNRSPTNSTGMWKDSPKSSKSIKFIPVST

[5] = target: mu (MOP) (h) (human), P35372; details: remark: other sources report otherwise
Sequence of mu (MOP) (h) (human), P35372 (P35372 whole entry): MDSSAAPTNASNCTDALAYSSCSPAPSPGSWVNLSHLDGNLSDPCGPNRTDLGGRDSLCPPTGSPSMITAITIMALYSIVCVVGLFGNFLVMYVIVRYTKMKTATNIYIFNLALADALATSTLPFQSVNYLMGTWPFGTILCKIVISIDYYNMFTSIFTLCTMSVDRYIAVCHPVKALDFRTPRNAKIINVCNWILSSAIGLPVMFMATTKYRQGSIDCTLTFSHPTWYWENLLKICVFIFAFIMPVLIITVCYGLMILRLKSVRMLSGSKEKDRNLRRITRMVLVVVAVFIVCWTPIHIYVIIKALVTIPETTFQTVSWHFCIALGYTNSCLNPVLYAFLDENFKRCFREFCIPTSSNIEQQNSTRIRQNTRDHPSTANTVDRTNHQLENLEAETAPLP

Row | Binder | % Inhibition of Specific Binding [1] [%] | % Inhibition of Specific Binding [2] [%] | % Inhibition of Specific Binding (AR (h) (human), P10275) [%] | % Inhibition of Specific Binding (BZD (central)) [%] | % Inhibition of Specific Binding [3] [%] | % Inhibition of Specific Binding (ETA (h) (human), P25101) [%] | % Inhibition of Specific Binding [4] [%] | % Inhibition of Specific Binding (V1a (h) (human), P37288) [%] | % Inhibition of Specific Binding [5] [%]
1 | Hex-CPPTQFC-OH (bridge 1-7; not fully specified (bridges); printed as Hex-[Cys(tMeBn(DOTA-AET))-Pro-Pro-Thr-Gln-Phe-Cys]-OH) [Hex-[Cys(tMeBn(DOTA-AET))-Pro-Pro-Thr-Gln-Phe-Cys]-OH] | -5 | 4 | -5 | 5 | 16 | 6 | -2 | 1 | -10
2 | Hex-CPPTQFCD-NH2 (bridge 1-7; not fully specified (bridges); printed as Hex-[Cys(tMeBn(DOTA-PP))-Pro-Pro-Thr-Gln-Phe-Cys]-Asp-NH2) [Hex-[Cys(tMeBn(DOTA-PP))-Pro-Pro-Thr-Gln-Phe-Cys]-Asp-NH2] | -3 | -2 | 3 | -9 | 24 | -18 | -8 | 16 | 2
